Measured values reported in publication PMC3750173, “Ferredoxin Competes with Bacterial Frataxin in Binding to the Desulfurase IscS*^([image sbox.jpg])” (The Journal of Biological Chemistry, 2013).

Assays:
[1] = target: holo-Fdx (cluster-loaded E. coli ferredoxin) (E. coli) (UniProt P0A9R4); assay: SAXS; solutions of 2.5-5.0 mg/ml at 10 °C; IscS alone and holo-Fdx·IscS complex
[2] = target: holo-Fdx (cluster-loaded E. coli ferredoxin) (E. coli) (UniProt P0A9R4); assay: BLI; biotinylated holo-Fdx on streptavidin biosensors, IscS 0-60 μM; 20 mM HEPES pH 7.5, 150 mM NaCl, 2 mM TCEP, 0.5 mg/ml BSA, 25 °C; Kd from the amplitude at equilibrium
[3] = target: T1, IscS_D346K/E347K (E. coli, UniProt P0A6B7 1-404, D346K | E347K); assay: NMR titration; 15N-SOFAST HMQC of [15N]- or [15N/2H]Fdx or Fdx mutants titrated with unlabelled IscS or IscS mutants; 20 mM Tris, 150 mM NaCl, 20 mM TCEP, pH 8, 298 K; conditions: both partners purified
T1 construct: cysteine desulfurase IscS, E. coli; site-directed mutant of pET-11 IscS

[4] = target: T2, IscS_I314E/M315E (E. coli, UniProt P0A6B7 1-404, I314E | M315E); assay: as above; conditions: both partners purified
T2 construct: cysteine desulfurase IscS, E. coli; site-directed mutant of pET-11 IscS

[5] = target: T3, IscS_R112E/R116E (E. coli, UniProt P0A6B7 1-404, R112E | R116E); assay: as above; conditions: both partners purified
T3 construct: cysteine desulfurase IscS, E. coli; site-directed mutant of pET-11 IscS; designed after the first round of docking

[6] = target: T4, IscS (E. coli desulfurase), wild type (E. coli, UniProt P0A6B7 1-404); assay: as above; conditions: both partners purified
T4 construct: cysteine desulfurase IscS, E. coli; construct pET-11 IscS (EMBL-Hamburg); Dimer by SAXS; also called desulfurase IscS

[7] = target: T4, IscS (E. coli desulfurase), wild type; assay: NMR titration; competition: holo-Fdx·IscS sample (with IscU added before) titrated with CyaY up to 3 molar excess over holo-Fdx; 20 mM Tris, 150 mM NaCl, 20 mM TCEP, pH 8, 298 K; conditions: both partners purified

IscS (E. coli desulfurase), wild type (from UniProt P0A6B7 1-404) (enzyme)
percent of free components [1]: 10% | percent of the complex (OLIGOMER fit) [1]: 80% | stoichiometry N (IscS:Fdx (2:2)) [1]: 1 | Kd [2]: 1500 nM

B1: holo-Fdx (cluster-loaded E. coli ferredoxin) (natural protein)
chain: MPKIVILPHQDLCPDGAVLEANSGETILDAALRNGIEIEHACEKSCACTTCHCIVREGFDSLPESSEQEDDMLDKAWGLEPESRLSCQARVTDEDLVVEIPRYTINHAREH
modifications: [2Fe-2S] cluster bound (holo); biotinylated for BLI (site not stated); 15N or 15N/2H labelled for NMR
notes: ferredoxin (Fdx) of the isc operon, E. coli; fdx amplified from E. coli genomic DNA into a modified pET-24 vector; The same construct was used 15N- or 15N/2H-labelled in NMR and biotinylated on streptavidin biosensors in BLI; residues left after TEV cleavage and the NcoI site are not described; also called [15N]holo-Fdx; [15N/2H]holo-Fdx; source: E. coli, purified (nickel-nitrilotriacetic …)
binding result [3]: binds | binding result [4]: binds | binding result [5]: binds

B2: holo-Fdx_E57K/D60K (natural protein, E. coli)
chain: MPKIVILPHQDLCPDGAVLEANSGETILDAALRNGIEIEHACEKSCACTTCHCIVRKGFKSLPESSEQEDDMLDKAWGLEPESRLSCQARVTDEDLVVEIPRYTINHAREH
modifications: [2Fe-2S] cluster bound (holo); 15N labelled
notes: ferredoxin (Fdx) of the isc operon, E. coli; mutant of the pET-24 construct; source: E. coli, purified (nickel-nitrilotriacetic acid-agarose, TEV cleavage, Superdex G75, MonoQ); not shown: GST, N-terminal, cleaved; His tag, N-terminal, cleaved
binding result [6]: binds

B3: holo-Fdx_D11K (natural protein, E. coli)
chain: MPKIVILPHQKLCPDGAVLEANSGETILDAALRNGIEIEHACEKSCACTTCHCIVREGFDSLPESSEQEDDMLDKAWGLEPESRLSCQARVTDEDLVVEIPRYTINHAREH
modifications: [2Fe-2S] cluster bound (holo); 15N labelled
notes: as for B2
binding result [6]: binds

B4: CyaY (bacterial ortholog of frataxin) (natural protein, E. coli, UniProt P27838 1-106, looked up)
chain: MNDSEFHRLADQLWLTIEERLDDWDGDSDIDCEINGGVLTITFENGSKIIINRQEPLHQVWLATKQGGYHFDLKGDEWICDRSGETFWDLLEQAATQQAGETVSFR
notes: CyaY, the bacterial ortholog of frataxin, E. coli; also called bacterial frataxin
binding result [7]: binds
